This note sets out measurements from publication PMC5633918, “The coproporphyrin ferrochelatase of Staphylococcus aureus: mechanistic insights into a regulatory iron-binding site” (Biochemical Journal, 2017).

Substrate in this data set: CC1=C(CCC(=O)O)c2cc3nc(cc4[nH]c(cc5[nH]c(cc1n2)c(C)c5CCC(=O)O)c(CCC(=O)O)c4C)C(CCC(=O)O)=C3C
Kind of data set: purified protein. Type of data set: biochemical, Staphylococcus aureus. The following applies: 0.7 µM Fe2+ (sub-inhibitory), 0.1 M Tris-HCl pH 8.1, 0.5% sodium cholate, 0.5% Tween 20, 1 mM beta-mercaptoethanol, 30 °C.

One may read the Km as the substrate concentration at which the rate is half of its maximum. The term kcat denotes the number of substrate molecules converted per active site and unit of time at saturation.

B1: S. aureus CpfC (coproporphyrin ferrochelatase) (Staphylococcus aureus subsp. aureus USA300) (protein)
chain: MTKKMGLLVMAYGTPYKESDIEPYYTDIRHGKRPSEEELQDLKDRYEFIGGLSPLAGTTDDQADALVSALNKAYADVEFKLYLGLKHISPFIEDAVEQMHNDGITEAITVVLAPHYSSFSVGSYDKRADEEAAKYGIQLTHVKHYYEQPKFIEYWTNKVNETLAQIPEEEHKDTVLVVSAHSLPKGLIEKNNDPYPQELEHTALLIKEQSNIEHIAIGWQSEGNTGTPWLGPDVQDLTRDLYEKHQYKNFIYTPVGFVCEHLEVLYDNDYECKVVCDDIGANYYRPKMPNTHPLFIGAIVDEIKSIF
notes: tag removal not mentioned
Turning to B1, the Km turned out to be 1.5 ± 0.2 µM and the kcat came out at 0.175 ± 0.0067 s⁻¹.
